Ends that are not written are not given here. * marks the point of attachment. Geranylgeranyl = CC(C)=CCC/C(C)=C/CC/C(C)=C/CC/C(C)=C/C*; Farnesyl = CC(C)=CCC/C(C)=C/CC/C(C)=C/C*
Tests used:
[1] = target: T1, Rat protein geranylgeranyl transferase type I (GGTase-I) (rat, UniProt Q04631 1-377; P53610 1-377); test: X-ray crystal structure, ternary complex with 3'azaGGPP
Method: Rat GGTase-I was expressed and purified as previously described herein (see also SAtrickland et al., 1999). […] GGTase-I product co-crystals were first transferred stepwise from their mother liquor (1.3 M NH₄SO₄, 175 mM Na₃-citrate, 100 mM MES pH 6.3, and 20 mM DTT) to cyro-solvent (30% (w:v) sucrose, 900 mM Na₃-citrate, 100 mM MES pH 6.3, 10 mM TCEP, and 1 μM ZnCl₂) supplemented with 0.2 mM 3′azaGGPP and 0.2 mM of the appropriate Ca₁a₂X peptide (Sigma-Genosys, >95% purity). All crystals were soaked for a week to allow for ternary complex formation and flash-cooled in liquid nitrogen.
(§1) Diffraction data were collected at 100 K with an R-Axis IV image plate system (Molecular Structure Corp., The Woodlands, Tex., United States of America) mounted on a Rigaku RU-H3R rotating anode generator with double mirror optics (Molecular Structure Corp.). Diffraction data were also collected at the BioCARS and SER-CAT beamlines at the Advanced Photon Source, Argonne National Labs and at the X25 beamline at the National Synchrotron Light Source, Brookhaven National Labs (BNLNSLS).

[2] = target: T2, Rat protein farnesyltransferase (rFTase) (rat, UniProt Q04631 1-377; Q02293 1-437); test: co-crystal of the product complex
[3] = target: T1, Rat protein geranylgeranyl transferase …; test: X-ray crystal structure, product Complex 3
Method: (§2) GGTase-I crystals were grown at 17° C. in hanging drops using equal volumes of protein and reservoir solution (1.3 M NH₄SO₄, 175 mM Na₃ citrate pH 6.5, 20 mM DTT and 100 mM MES, pH 6.3). Micro-seeds were added after equilibration to control nucleation. Seeding solution was produced by crushing GGTase-I crystals in stabilizing solution (1.5 M NH₄SO₄, 175 mM Na₃ citrate pH 6.5, 5 mM ZnCl₂, 20 mM DTT and 100 mM MES, pH 6.3). […] For data collection crystals were transferred stepwise into cryosolvent (30% (w:v) sucrose, 1.8 M NH₄SO₄, 5 mM ZnCl₂, 10 mM TCEP, and 100 mM MES, pH 6.3) before flash-freezing in liquid nitrogen. Derivative crystals were soaked 18 hours in cryosolvent containing 1 mM Di-m-iodobis (ethylenediamine) diplatinum (II) nitrate (PIP) and no TCEP.

[4] = target: Human protein farnesyltransferase (hFTase) (human, UniProt P49354 1-379; P49356 1-437); test: X-ray crystal structure, ternary complex with FPT-II
Text: (§3) The FTase:FPTII: Ca₁a₂X complexes were transferred to cryoprotection solutions and flash-cooled in liquid nitrogen.
as §1
(§4) The structures were determined by rigid body refinement using either rat FTase (Brookhaven Protein Data Bank code 1 D8D) or human FTase (Brookhaven Protein Data Bank code 1JCQ) as the initial model with ligands removed. […] After rigid body refinement, FPT-II and the Ca₁a₂X peptides were fit into σA weighted Fₒ-Fc maps and the complexes refined against all data with |F|≧0 by iterative cycles of simulated annealing, minimization, individual B-factor refinement, and model building. Refinements were carried out using CNS v1.0 (Brünger et al., 1998) and models built using O (Jones et al., 1991).

[5] = target: T2, Rat protein farnesyltransferase (rFTase); test: X-ray crystal structure, FTase complexed with FPT-II and peptide (FIG. 16)
Text: as §3, §1, §4

[6] = target: T1, Rat protein geranylgeranyl transferase …; test: X-ray crystal structure, ternary Complex 2 with 3'AzaGGPP
Method: as §2

[7] = target: T2, Rat protein farnesyltransferase (rFTase); test: X-ray crystal structure, ternary complex with FPT-II
Text: as §3, §1, §4

Binder	binding result [1]	also measured
KKKSKTKC(Farnesyl)VIM (Product co-crystal with FTase, used as starting material for the TC21 soak; also called farnesylated product) [farnesylated-KKKSKTKCVIM product (SEQ ID NO: 8)]		binding result [2]: binds
KKKSKTKC(Geranylgeranyl)VIL (also called prenyl-peptide product; prenylated product) [geranylgeranylated-KKKSKTKCVIL product (SEQ ID NO: 1)]		binding result [3]: binds
DDPTASACNIQ (Synthetic, Sigma-Genosys, >95% purity; also called Rap2a (CNIQ)) [Rap2a peptide DDPTASACNIQ (SEQ ID NO: 10)]		binding result [4]: binds
GCINCCKVL (Synthetic, Sigma-Genosys, >95% purity) [RhoB peptide GCINCCKVL (SEQ ID NO: 11)]	binds	
GCVLS (Synthetic, Sigma-Genosys, >95% purity; also called H-Ras (CVLS)) [H-Ras peptide GCVLS (SEQ ID NO: 6)]		binding result [5]: binds
KKKSKTKCVIL (Synthetic, Sigma-Genosys, >95% purity; also called Rap2b chimera peptide; CVIL peptide) [Ca1a2X peptide KKKSKTKCVIL (SEQ ID NO: 1)]		binding result [6]: binds
KKKSKTKCVIM (Synthetic, Sigma-Genosys, >95% purity; also called K-Ras4B (CVIM)) [K-Ras4B peptide KKKSKTKCVIM (SEQ ID NO: 8)]	binds	

Continued, in another order:

binding result [1]	Binder	also measured
binds	FREKKFFCAIL (Synthetic, Sigma-Genosys, >95% purity; also called y2) [heterotrimeric G protein γ2 subunit peptide FREKKFFCAIL (SEQ ID NO: 13)]	
binds	KKSKTKCKVL (Synthetic, Sigma-Genosys, >95% purity) [RhoB peptide KKSKTKCKVL (SEQ ID NO: 12)]	
binds	RRCVLL (Synthetic, Sigma-Genosys, >95% purity; also called Cdc42-II) [Cdc42 splice isoform 2 peptide RRCVLL (SEQ ID NO: 14)]	
binds	KKSKTKCVIF (Synthetic, Sigma-Genosys, >95% purity; also called TC21 (CVIF)) [TC21 peptide KKSKTKCVIF (SEQ ID NO: 9)]	binding result [7]: binds

From patent US20050221459A1 (DUKE UNIVERSITY, published 2005)
